The text below walks through data of patent publication US20260209319A1 (JECHO LABORATORIES, published 2026).

Assay [1] addresses T1, mesothelin on the cell surface (OVCAR3, Capan-2 cells) (UniProt Q13421 296-598). Briefly: flow cytometry on OVCAR3 cells. (A flow cytometer gives signals particle by particle.)
The target of assay [2] is T1, mesothelin on the cell surface (OVCAR3, …). In words: cell-based or functional assay.
In assay [3] the target is T2, mesothelin (soluble, recombinant) (UniProt Q13421 296-580, limits assumed).
T2 construct: also called MSLN; soluble MSLN
Briefly: method not stated; quoted in the T cell activation example.

The target of assay [4] is T3, CD3 on Jurkat cells (UniProt P07766 23-207).
T3 construct: whole, on cells; Part of the TCR/CD3 complex on cells
In words: flow cytometry on Jurkat cells.

Assay [5] has as its target T2, mesothelin (soluble, recombinant). Briefly: Octet BLI, bsAb captured on AHC biosensors, mesothelin 0-200 nM, 1:1 model. On the technique in general: In BLI a coated tip is dipped into the sample, and binding shifts an interference pattern.
Source text: The Fe-epitope anti-human capture (AHC) biosensors from ForteBio were used for loading the testing bsAbs. […] A probe loaded with a control antibody was used as a reference sensor. […] The dissociation constants (KD) and Kₒₙ/Koff are estimated by fitting to the 1:1 binding model. The probes were regenerated for multiple rounds of measurements.
The target is the same in assay [6]. In words: cell-based or functional assay.
In assay [7] the target is mesothelin on the cell surface (OVCAR3, Capan-2 cells) (UniProt Q13421 296-598). In words: cell-based or functional assay. The source holds these as a separate data set.
The target in assay [8] is T2, mesothelin (soluble, recombinant). In words: SPR (Biacore 3000), antibody captured on the chip via an Fc antibody, mesothelin 0.625-10 nM [text above the curves]. For orientation: SPR reads the build-up and loss of mass on a sensor chip optically.
Procedure: The measurement was performed by immobilizing the tested antibody and then perfusing with corresponding concentrations of mesothelin.
Assay [9] shares this target. Briefly: SPR, Biacore 3000, antibody captured via an Fc antibody, mesothelin 0.625-10 nM.

B1: m912-[L]-scFv^CD3 bsAb (bispecific antibody, V domains shown)
VH: QVQLQESGPGLVKPSETLSLTCTVSGGSVSSGSYYWSWIRQPPGKGLEWIGYIYYSGSTNYNPSLKSRVTISVDTSKNQFSLKLSSVTAADTAVYYCAREGKNGAFDIWGQGTMVTVSS
VL: not shown
By EC50 is commonly meant the midpoint of the concentration-response curve. High values mean a need for much substance, low ones an effect from little substance. Usually Kd stands for the concentration at which binding is half-saturated. Take B1: the results for the EC50 in assay [1] and in assay [4] were 0.572 µg/mL and 0.403 µg/mL, respectively. Besides, the “EC50, T cell activation assay (Jurkat NFAT-luciferase reporter) in the presence of Capan-2 cells” value (“EC50, T cell activation assay … of Capan-2 cells” below) in [2] is 6.92 µg/mL. Also, the “EC50, T cell activation assay (Jurkat NFAT-luciferase reporter) in the presence of OVCAR3 cells” value (from here on “EC50, T cell activation assay … of OVCAR3 cells”) in assay [2] amounted to 6.64 µg/mL. Moreover, the dissociation constant Kd in assay [3] amounted to 72000 pM.

B2: MSLN-39-[L]-scFv^CD3 bsAb (bispecific antibody, V domains shown)
VH: QVQLQESGPGLVKPSETLSLTCTVSGGSVSSFTDTWSWIRQPPGKGLEWIGYIYYSGSTNYNPSLKSRVTISVDTSKNQFSLKLSSVTAADTAVYYCAREDALTGFDIWGQGTMVTVSS
VL: DIQMTQSPSSLSASVGDRVTITCRASQSSRYYVNWYQQKPGKAPKLLIYAASSLQSGVPSRFSGSGSGTDFTLTISSLQPEDFATYYCQQSYDASYTFGGGTKVEIK
For orientation: koff means a measure of how fast the partners let go of each other. The kon is the second-order rate constant of association. As for B2, in [1], it took 0.0124 µg/mL to reach a half-maximal effect (EC50). Also, in assay [5], the Kd was determined as 1.07 pM, the off-rate constant (koff) stood at 4.05e-07 s⁻¹ and the on-rate constant (kon) is 379000 M⁻¹ s⁻¹. In addition, in assay [2], the “EC50, T cell activation assay … of Capan-2 cells” value is 0.0128 µg/mL and the “EC50, T cell activation assay … of OVCAR3 cells” value turned out to be 0.0082 µg/mL. Besides, in [6], the “fold increase of the IC50 in the luciferase-based cytotoxicity assay on NCI-N87 cells at 200 ng/mL of soluble MSLN” value came out at 27 fold. In assay [4], the half-maximal effective concentration (EC50) was determined as 0.893 µg/mL.

B3: HP4-44-[L]-scFv^CD3 bsAb (bispecific antibody, V domains shown)
VH: QVQLQESGPGLVKPSETLSLTCTVSGGSVSSGSYYWSWIRQPPGKGLEWIGYIYYSGSTNYNPSLKSRVTISVDTSKNQFSLKLSSVTAADTAVYYCAREDVLSGFDIWGQGTMVTVSS
VL: DIQMTQSPSSLSASVGDRVTITCRASQSISSYLNWYQQKPGKAPKLLIYAASSLQSGVPSRFSGSGSGTDFTLTISSLQPEDFATYYCQQSYDAFYTFGGGTKVEIK
The molecule B3 had an EC50 in assay [1] of 0.0096 µg/mL. In addition, in assay [5], the Kd is 2910 pM, the dissociation rate constant (koff) was 0.000809 s⁻¹ and the on-rate (kon) stood at 278000 M⁻¹ s⁻¹. Besides, in assay [2], the “EC50, T cell activation assay … of Capan-2 cells” value was found to be 0.0105 µg/mL and the “EC50, T cell activation assay … of OVCAR3 cells” value turned out to be 0.0087 µg/mL. Also, the “fold increase of the IC50 in the luciferase-based cytotoxicity assay on NCI-N87 cells at 200 ng/mL of soluble MSLN” value in assay [6] amounted to 2.5 fold. Further, the EC50 in [4] was determined as 0.636 µg/mL.

B4: MSLN-30-[L]-scFv^CD3 bsAb (bispecific antibody, V domains shown)
VH: QVQLQESGPGLVKPSETLSLTCTVSGGSVSSRDDLWSWIRQPPGKGLEWIGYIYYSGSTNYNPSLKSRVTISVDTSKNQFSLKLSSVTAADTAVYYCARDFVLSGFDIWGQGTMVTVSS
VL: DIQMTQSPSSLSASVGDRVTITCRASQSISSYLNWYQQKPGKAPKLLIYAASSLQSGVPSRFSGSGSGTDFTLTISSLQPEDFATYYCQQPYDASYTFGGGTKVEIK
For B4, in [1], the EC50 was found to be 0.0121 µg/mL. Besides, in assay [5], the Kd worked out at 1.71 pM, the koff amounted to 2.44e-07 s⁻¹ and the on-rate constant (kon) was found to be 221000 M⁻¹ s⁻¹. Moreover, in [2], the “EC50, T cell activation assay … of Capan-2 cells” value turned out to be 0.0117 µg/mL and the “EC50, T cell activation assay … of OVCAR3 cells” value stood at 0.0098 µg/mL. The molecule also gave a concentration for a half-maximal effect (EC50) in [4] of 0.521 µg/mL.

B5: MSLN-31-[L]-scFv^CD3 bsAb (bispecific antibody, V domains shown)
VH: QVQLQESGPGLVKPSETLSLTCTVSGGSVSSFTDTWSWIRQPPGKGLEWIGYIYYSGSTNYNPSLKSRVTISVDTSKNQFSLKLSSVTAADTAVYYCARDFVLSGFDIWGQGTMVTVSS
VL: DIQMTQSPSSLSASVGDRVTITCRASQSISSYLNWYQQKPGKAPKLLIYAASSLQSGVPSRFSGSGSGTDFTLTISSLQPEDFATYYCQQPYDASYTFGGGTKVEIK
notes: IgG-[L]-scFv format; also called MSLN-31 bsAb; not shown: IgG heavy constant region (N297G, K322A), light constant region and the huOKT3-scFv with its 3xG4S linker; copies: 2 + 2
B5: in assay [5], the Kd came to 1.18 pM, the koff was 3.03e-07 s⁻¹ and the kon is 258000 M⁻¹ s⁻¹. Also, in assay [7], the “EC50, T cell activation assay … of Capan-2 cells” value worked out at 0.0156 µg/mL and the “EC50, T cell activation assay … of OVCAR3 cells” value turned out to be 0.0116 µg/mL.

B6: MSLN-39 IgG (antibody, V domains shown)
VH: QVQLQESGPGLVKPSETLSLTCTVSGGSVSSFTDTWSWIRQPPGKGLEWIGYIYYSGSTNYNPSLKSRVTISVDTSKNQFSLKLSSVTAADTAVYYCAREDALTGFDIWGQGTMVTVSS
VL: DIQMTQSPSSLSASVGDRVTITCRASQSSRYYVNWYQQKPGKAPKLLIYAASSLQSGVPSRFSGSGSGTDFTLTISSLQPEDFATYYCQQSYDASYTFGGGTKVEIK
notes: IgG; also called MSLN-39 antibody; MSLN-39 in IgG format
In the case of B6, in assay [8], the koff was determined as 8.93e-05 s⁻¹ and the on-rate (kon) is 1.58e+06 M⁻¹ s⁻¹. Also, the Kd in [9] worked out at 56.4 pM.
